Data from the DeepSol protein solubility set.

Assay: soluble on expression in E. coli; label from the status in PepcDB or PDB records

Sequence	soluble on expression in E. coli
MSLHVGAGKSFGTAEANENERRWNDDKIDRKNQDPTNHYDRTRMKLNFEIGPDGKIHPLGYQEKSLEVRLQERLDELGWKPFKADSKIQPNCCAKFVFGGNHDRTLEMAFGNQSVNLEKGADNSHLHRCEEIENWAKDVYDWCVQIYGQENIVGFQVHLDESSPHIHALVVPVGIRPKSGRKCVMWSAKFGKDRYEYGQILKEMHTFLYEDVGSKYGLERGDSIEGRNVHHLHKRDYIRKLTKEAKQAEKAVKGLQSMMRNLESKIFSYRLQLEETEKELASGKITLDRYEAQKADIQKLIAEYQTKLEDKTDKLHAKEQELERLTADATKARSVVQPFRNHKVDFMPPQITEKVPLFGTDKWVERQNQRIAKQFTEIVRKIESLYRNDAARQVEAAQRNVLADYGELYQLRRENKSLSDTNESLESELNTLLDQLAIPSARNLIFAVADALIGGQPVPVSSGGGGSTSDLPWDGRRSDEEEEAYRRRCLMFAIVTVCKQQTKSRREGHHHHHH	soluble
MSLTQFASPVLHSLLDTDAYKLHMQQAVFHHYYDVHVAAEFRCRGDDLLGIYADAIREQVQAMQHLRLQDDEYQWLSALPFFKADYLNWLREFRFNPEQVTVSNDNGKLDIRLSGPWREVILWEVPLLAVISEMVHRYRSPQADVAQALDTLESKLVDFSALTAGLDMSRFHLMDFGTRRRFSREVQETIVKRLQQESWFVGTSNYDLARRLSLTPMGTQAHEWFQAHQQISPDLANSQRAALAAWLEEYPDQLGIALTDCITMDAFLRDFGVEFASRYQGLRHDSGDPVEWGEKAIAHYEKLEIDPQSKTLVFSDNLDLRKAVELYRHFSSRVQLSFGIGTRLTCDIPQVKPLNIVIKLVECNGKPVAKLSDSPGKTICHDKAFVRALRKAFDLPHIKKASEGHHHHHH	soluble
MTEKKIDFKKEEKKFYAPKRKPERIFVPEMNFLMVDGKGDPDGEEYQKAVQSLYAIAYTIKMSKMGETRLDGYSDFVVPPLEGFWWSEGKFDLKDRDAWLWTSILRQPDFVTEEVLEWAKEVARKKKPDV	not soluble
MASFITRAERSGNIFSRVTGLIRAGQLNWADRPLWYDVYVSSPPLTPPDWNVKLAKYDEPIRSIFYEEDVLRAKFYKTYRSTAGIQVDSSRTSVSQQFINEYKLVKSENAEATDDQLFEMTQKRLNENGIVLK	not soluble
ISVDTLNTKELIEAINLGADMILSVDAGNLDELIPYLKDSETAVVVLPTNYKTNYVPETIEGKIKSLEENIKKLIDAGIEKIVADPILEPINNAGCSFIESVIACREFKKRNKLPLFFGVGNVTELFDADSNGVNALLAAIGAEIGANILFTPEASAKCKFSIKELKIASKMMFLAKKRNSLPKDIGYNLINYKDKRFEEEITFNSYNIPIIKAEEDERQILDEGSFKIEIDRKNKEIVAIYFNKRREPVLIIRGKKPKEIYETAIRLNLIKKLDHASYFGRELAKAEIALRIGKKYNQDFDLF	not soluble
MPADPRNAGKDKGNLQMELQNLLTSARIRKMEYEAIVEELEEDELKYDLFEYQDYLENYIMPYVERAYKNGSKELIGMAEEVKSIFEEIIDMIKARIEKK	not soluble
MIRITQIKISIDEPVSKVKSLVLKKLRLQESDLLDYRIYKESIDARHRGEIDFIYTVDIKLKDEARILSKKIKNVSLAPELDYVNPVIGSKKMLHRPVVIGFGPAGMFAALLLAQNGYRPIVLERGQAVDERVKSIDKFWLEGKLNPKSNVQFGEGGAGTFSDGKLTSRVRDLRGRKVLEEFVQAGAPEDILYKAHPHVGTDLLRDIVKNIRKQIIELGGEVHFDAQVEEFLIEDEELQAVKLADGNIIKTNQAILAIGHSARDTFSELYDKGVTITAKPFAVGVRIEHPQSLINKAQYKEFADHPRLGAAEYRLTYKASSGRGVYTFCMCPGGLVVPAASEEGGLVTNGMSEHARDQKNANSGLLVQVFPEDFPTDHPLAGVEFQKELEHKAFELGGSNYQAPAQLVGDFLDGKASKAMGTVEPSYALGVKPTNLESLFPDYVTQSMREAIVGLDKKMHGFALSDAVMTGVESRSSSPVRINRDEENYQSVSTKGIYPSGEGAGFAGGIVSAGIDGLKCAESMIAEFAKLLMEDLEHHHHHH	soluble
MDLSQGPVRAAQAAPQVLCTASVHHDHPHAIETLVEALGPVELELILLMASPQTDIPALLARAAAVLPGTRIVGCTTAGEISAAGYTEGEIVAIGMPRAYFKAQTMLIDDLTDYDAQAIIDRMIQTRNDLAAARPEWGHEFNFLLIDGLSTLEDRLVSDLAMGLGPVPLFGGSAGDGERFGTTFVFHEGRAHGNAAVLMQVRTRCPIQVFKTDHLIPTEKRMVVTGADPDRRLVHEINAEPAAREYARVLGKDPEQLTTFTFAAHPVVVRIGGQHHVRSIQRVAENGDLVFFSAIDEGLVLTLAEARDMREHLREELGRLAADGPPAVILGCDCLLRRMEAQQKQVLGALSDILRENRVVGFSTYGEQFNSMHVNQTLTGVAIYPPDDM	soluble
YPMVNNYLEMGHGLYVVEIHVKSNLHDTPLSKLISRGSYNIQPILVKREEAVYTNINDEFVLNEFDTLLLCGSRAELKYVAPRLV	not soluble
MGSDKIHHHHHHMENERKRILELVKQGIISTEEALTLLENISKKEGKTAAKENIRRSAAPREEEQVEEETKEEPSYDYSKGWNNQGNPYTPPKSRKRRPEPTPENHERDEEEGGENSSKDREDSMRNMVNDLSQAGEKIGSFLNSAFKQVKDMPFPFLTSTKIERDFIYHDTTLSILEFEIANGNIEFKPSDSNDIKVHAMIKLFKEYPEDEALKIFFDKTTLRVDEETLRFESKSKQIVTNLTVYLPRREYDYVSVKMLNGNFHMDELSGRDLFVKTTNGNISIGTLNATLAEIESINGNVRIQNGEIRDVALKTFNGNVAVKGNYYSTNLQTKNGNVNYQLTGNEATFLKAKTGAGNIDVVVPAAIGVDGRFHTNLGKLLLDLKDAEILESKTESVSKSIIFTKLPDAADSSLKIEAEATTGSVKIRDVK	not soluble
MTRTNYQKKRMTCPVETEDITYRRKKIKGRRQAILAQFEPELVHHELIGDSCTCPDCHGTLTEIGSVVQRQELVFIPAQLKRINHVQHAYKCQTCSDNSLSDKIIKAPVPKAPLAHSLGSASIIAHTVHQKFTLKVPNYRQEEDWNKLGLSISRKEIANWHIKSSQYYFEPLYDLLRDILLSQEVIHADETSYRVLESDTQLTYYWTFLSGKHEKKGITLYHHDKRRSGLVTQEVLGDYSGYVHCDMHGAYRQLEHAKLVGCWAHVRRKFFEATPKQADKTSLGRKGLVYCDKLFALEAEWCELPPQERLVKRKEILTPLMTTFFDWCREQVVLSGSKLGLAIAYSLKHERTFRTVLEDGHIVLSNNMAERAIKSLVMGRKNWLFSQSFEGAKAAAIIMSLLETAKRHGLNSEKYISYLLDRLPNEETLAKREVLEAYLPWAKKVQTNCQ	not soluble
MDYSVANAGFERFQSAMEKDVERMRDFQERMSQVRGKGEAAEGRITAEVDSENGLAVLDIDPRVLRMPVEDISTEIRAAVNAAFKDFQDKTGSLAAELYGAQGEDPEKILADPSALLAKIEELGNNFAVQLQDMARELSVQQQRAKDIAGRMTPPRDLD	not soluble
MLIKVKTLTGKEIELDIEPNDRVERIKEKVEEKEGIPPPQQRLIFAGKQMNDDKTAADYKVLGGSVLHLVLALRGGF	not soluble
AHHHHHHGSGETLRIAFIYDVIYPWVKGGVERRLYEIAKRLAEKHEVHIYGYKHWDGKKIQEMNGIFYHGTIKPKKIYHGNRRAILPPIFHSINLLFLLKGQHLDIIDCQATPYFPCYASRVSNSNLVITWHEFWGNYWLKYLGRAGFFGKIIERGLFVLTDNHIAVSLKTKKDLYKAGLRKNIYVVPNGIDFEKIQEIKPSSYTSDIIFVGRLIKEKNVPLLLKALTIIKQDIPDVKAVVVGDGPEREYLEKLSFKLNLQDNVKFLGFLNRYEDVVALMKASKVFAFPSLREGFGIVVIEANASGLPVVTVEHEMNASKDLILEWKNGFIAKVNEKDFAEKILIALEKRKKMKKLSTEIARKYNWNEIVKKLERYYRWIA	soluble
MARESVKILQGKLDVESLISQLNAALSEEWLAYYQYWVGALVVEGAMRADVQGEFEEHAEEERRHAQLLADRIIELEGVPVLDPKKWFELARCKYDAPQGFDSVSLLKDNVASERCAILRYQEIADFTNGKDFTTCDIAKHILAEEEEHEQDLQDYLTDIARMKKSFLDK	not soluble
MAHHHHHHMEKNQNDKSNKNDIIHMNDKSGNYDKNNINNFIDKNDEHDMSDILHKINNEEKKYEEIKSYSECLELLYKTHALKLGLDNPKKLNESFGHPCDKYKTIHIAGTNGKGSVCYKIYTCLKIKKFKVGLFSSPHIFSLRERIIVNDEPISEKELIHLVNEVLNKAKKLYINPSFFEIITLVAFLHFLNKKVDYAIIETGIGGRLDATNILTKPEVIVITSIGYDHLNILGDNLPIICNEKIGIFKKDANVVIGPSVAIYKNVFDKAKELNCTIHTVVPEPRGERYNEENSRIALRTLEILNISIDYFLKSIIPIKPPLRIQYLATEQIQHIKKKFSPDNLEHNVQYPLAVILDVGHNETAIDRLCTDINYFHKGQNIRICISITKPRNLSVFHPFIAQFGDTLKDIFYLPSLNERTYDFEEIVEMLNNEEEIKNEIKELILSSSKKVGKWLAHEKQGNINEEDALKLYKRGCIPLIIKNAFLECCKDNSILLVCGTFFVFDEVLNVFDIHSDMQDTIFMNEPSLV	soluble
MADKSSRSLILYGDGLARFVDPSNTNIHSLASVATCGFLSLPNAPPETENERIVREFSHLLDASEAYSIASGLKPKGNGNDISTLAERFMGLKAALVTDSSTLTSFGKLIGLDVLQLSEICQESDSFPSDATSSKLLKLLGFEGGKCLDVNLYDLVFVHFGVDEYNNGNNMGILDSLIGSIMGMAQPGSEILSRLHLSVVLSYGSVTDKDVSVFPIKTPQEDINPAFIGLVPRQSYTMRGEKTRDDVRHYCPMLVAQWQHGVTRKDLVDTLSFEALKKLCGNLVIPADRFIHEVAFKLWKAPKYGA	soluble
MGSDKIHHHHHHMFTDYVLLLFSTTPRRAKGLFNVLRGRRTVSTLFAGLTAGYLDLLDSCHEVPLEDFMAATAALTENGQLTSTATGCWQLTQAGEHRQAKLRQTLYMPQNFEVFQTTDVRRFRIVSQLALQVVSELVHHDRHYYPVTTDPGIQAQVKQWLRQQSKVELGEQIHAALTAFLTSLADPELPTVFVQGITGYQEPGLTNEQLAAQLGRQPWEASLMHTDVICQWIAWIQRHPRDPFSQLLSVLTQASAISQSAEQTYQAFLKTQQLAAIAQTRHLKMSTVREHLLEVAIWSPDFPFEMVLNHEITQQLATIFAAQPDIANWSFQEAQAALPTLDFFEFRLFQIMRCQHVRR	not soluble
MSISMDRWQGIQHVVVVGLGITGLSVVNYLRKYHPSVTVQVIDTREAPPGQEQLSSDVALHRSGWNLEWLLNADLVVTNPGIALATPEIQQVLAAGIPVVGDIELFAWHVDTPVIAITGSNGKSTVTDLSGVLANAAGVKAAVGGNIGVPALDLISPDVELYVLELSSFQLETTSSLKLKAAAFLNLSEDHMDRYQGMEDYRQAKLRIFDHAETAVVNADDTQTFPDHAAHLQVVTFGVEQAAQFSLAQHQGREYLFARDEAVMACAELSLVGRHNVANVLTVLALLDSAGVNFRLALDALKSYTGLTHRCQVVADNHGIKWVNDSKATNVASTLAALSGLKIEGQLYLLVGGVGKGADFTPLAPVLATLPVQLCCFGVDGHQFMPLHPSARFYDSMESIIRSIRPQLKSGDMVLLSPACASFDQFKNFMARGDIFAQLARQYA	not soluble
MIGQTNLFDDVLKQDERFVIVVQALEEKNGQLLKRTLREYPGLNHKQMNDLFTHLKELFSEESFAENQSAFSITVYTNLDYTADQIYAHVKRFRGKHDWTQTAKLEHHHHHH	soluble
LLPGAPDCRVYGWIYSSPTPGRAWVLLVHGLGGDHTFFEEPLGGYRVAYDLALRGFKVLAIDAAGHGESCIPGGESWRDKALTLEPGEFFLYHVYLSGVRAVEAALELGAEPG	not soluble
